The source of these data is publication doi:10.1101/836718.

The target in assay [1] is recombinant His-tagged HIV-1 integrase P15 (A128T/K173Q) (IN^P15) (HIV-1 (NL4-3)). The assay is described as follows: SEC.
For assay [2], the target named is recombinant His-tagged HIV-1 integrase R269A/K273A (IN^RAKA) (HIV-1 (NL4-3)). The assay is described as follows: cross-linking.
In assay [3] the target is recombinant His-tagged HIV-1 integrase P26 (A128T/H171Q/K173Q/N254K) (IN^P26) (HIV-1 (NL4-3)). The assay can be described thus: SEC.
Assay [4] has the same target. The assay can be described thus: cross-linking.
The target of assay [5] is recombinant His-tagged HIV-1 integrase P20 (A128T/K173Q/N254K) (IN^P20) (HIV-1 (NL4-3)). The assay is described as follows: SEC.

“recombinant His-tagged HIV-1 integrase P15 (A128T/K173Q) (IN^P15) (enzyme)”: the stoichiometry N in assay [1] was 2.

On to “recombinant His-tagged HIV-1 integrase R269A/K273A (IN^RAKA) (enzyme)”, for which, in assay [2], the stoichiometry N is 4.

As to “recombinant His-tagged HIV-1 integrase P26 (A128T/H171Q/K173Q/N254K) (IN^P26) (enzyme)”, the stoichiometry N in assay [3] came to 2. In addition, in assay [4], the multimer ratio, dimers worked out at 19.6%; the multimer ratio, tetramers amounted to 3.3%; the stoichiometry N stood at 4.

With “recombinant His-tagged HIV-1 integrase P20 (A128T/K173Q/N254K) (IN^P20) (enzyme)”, the stoichiometry N in assay [5] turned out to be 2.
